Where a chain is given by its changes, count along the chain named.

B1: fp.001 (antibody, V domains shown)
VH: VQLVESGGGVVQPGRPLRLSCSGSGFIFSNYAMHWVRQAPGKGLEWVAIISFDARNKRYADSVEGRFTISRDNSKNILYLQMNSLRLEDSAVYFCARDLFLSDYDNGVYDPTRGGFDYWGQGTLVTVSS
VL: EIVMTQSPATLSLSPGERATLSCRASQSVNNRLAWYQQKLGQPPRLLISGASTRATGIPARFTGSGSGTEFTLTISSLQSEDFAVYYCQQYHDWPLLSFGGGTKVEIK
B2: fp.003 (antibody, V domains shown)
VH: VQLVESGGGVVQPGTSLRLSCTASGFSFSNYAMHWVRQAPGKGLEWVAIISFDTRNKEFADSVKGRFSISRDNSKNSLNLQMNSLRPEDTGVYYCARDLFLSDYDSRGYEPSRGGFDYWGQGTLVTVSS
VL: B1 VL with L13V, N30S, N31S, R32S, S49Y, T63S, Q79K, F83S, H92N
B3: fp.010 (antibody, V domains shown)
VH: EVQLLESGGGLVQPGGSLRLSCAASGFTFSTYAMNWVRQAPGKGLEWVSAISSSGLSTQYADSVRGRFTISRDTSKNTLYLHMNSLRAGDTAVYYCAKVEYSGYDPRGPFDSWGQGTLVTVSS
VL: DIQMTQSPSTLSASVGDRVTITCRASQSISGWLAWYQQKPGRAPKLLIYKASSLERGVPSRFSGSGSGTEFTLTISSLQPDDFATYYCQEYSSYPLCTFGQGTKLEIK
B4: fp.004 (antibody, V domains shown)
VH: VQLVESGGGVVQPGTSLRLSCVASGFTFSNYAMHWVRQAPGKGLEWVAIISFDTRNTASAASVKGRFNISRDNSKNSLYLQMNSLRPEDTGVYYCARDLFLSDYDSRGYDPITGGFDCWGQGTLVTVSS
VL: EIVMTQSPAALSVSPGEGATLSCRASQSVGSRLAWYQQKLGRPPRLLIYGASTRATGIPARFSGSGSGTEFTLTISSLQSEDFAVYYCQQYNDWPLLTFGGGTKVKIK
B5: fp.002 (antibody, V domains shown)
VH: VQLVESGGGVVQPGTSLRLSCAGSGFNFDNYAIHWVRQAPGQGLEWVAIISYEARNKKYAGSVTGRFSISRDNSKSMVYLQMDSLRGEDTAVYYCARDLFLSDYDRSGYDPTRGGFDLWGQGTLVTVSS
VL: EIVMTQSPATLSVSPGERATLSCRASQSVSSSLAWYQHKLGQAPRLLIYGASTRATGIPGRFSGSGSGTEFTLTISSLQSEDVAIYYCQQYGDWPLVTFGGGTKVEIK
B6: fp.005 (antibody, V domains shown)
VH: VQLVESGGGVVQPGNSLRLSCAASGFRFNNYAMHWVRQAPGKGLEWVAIISYEARNEKYADSVKGRFSISRDNAKNTLYLQMNSLRADDTGVYYCARDLFLSDYDTSGYDRTRGGFDYWGQGALVTVSS
VL: B5 VL with S31N, S32G, K39R, L40F, A43P, G60T, V83F, I85V, G92D, V97I
B7: fp.011 (antibody, V domains shown)
VH: EVQLLESGGGLVQPGGSLRLSCAGSGFTFNNYAMTWVRQAPGRGLEWVSAISGSGGSSHYADSVKGRFTITRDNSKNTLYLQMNSLRAEDTAVYYCAFIDYYSGWSYYYGLDVWGQGTTVTVSS
VL: EIVLTQSPATLSLSPGERATLSCRASQGVRTYVAWYQQKPGQAPRLLIYDASNRATGIPARFSGSGSGTDFTLTISSLEPEDFAVYYCQQRYNWPLCSFGQGTKLEIK
B8: hr2.014 (antibody, V domains shown)
VH: QVQLVQSGAEVKKPGASVKVSCKASGYTFTTYAVHWLRQVPGQRPEWIGWINAANGNTKYSEKFQGRVTITRDTSASTAYMDLRSLRSEDTAVYYCARLLVVRDDPYYYGMDVWGQGTTVTVSS
VL: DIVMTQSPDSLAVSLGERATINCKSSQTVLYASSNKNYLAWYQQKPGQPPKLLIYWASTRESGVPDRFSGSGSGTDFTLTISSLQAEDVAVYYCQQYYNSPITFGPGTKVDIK
B9: hr2.017 (antibody, V domains shown)
VH: EVQLVESGGGLVQPGGSLRLSCAVSGFAFSSSWMHWIRQAPGRGLVWVSRINRDGSTTDYADSVKGRFTISRDNAKATLYLQMNSLRAEDTAVYYCATMGFDYWGQGALVTVSS
VL: DIVMTQSPDSLAVSLGERATINCKSSQNVLYSSNNKNHLSWYQQKPGQPPKLLIYWASTRKSGVPDRFSGSGSGTDFTLTINSLQAEDVAVYYCQQYFSTPNTFGQGTKLEIK
B10: hr2.094 (antibody, V domains shown)
VH: EVQLVESGGGLVQPGGSLRLSCAASGFTFSTFWMTWVRQAPGKGLEWVANIKSDGSEKYYVDSVKGRFTISRDNAKNSLYLQMNSLRAEDTAVYYCATWFGLHWGQGTLVTVSS
VL: DIVMTQSPDSLAVSLGERASINCKSSQTVLYSSNNKNYLAWYQQKPGQPPKLLIHWASTRDSGVPDRFSGSGSGTDFTLTISSLQAEDVAVYYCQQYHRIPWTFGRGTKVEIK
B11: hr2.090 (antibody, V domains shown)
VH: EVQLLESGGGLVQPGGSLRLSCAASGVTFSRYAMSWVRQAPGKGLEWVSTISGGGGGTYYADSVKGRFTISRDNSKNTLYLQMNSLRAEDTAVYYCATLLTVPGPYYFEYWGQGTLVTVSS
VL: EIVLTQSPGTLSLSPGERATLSCRASQSVSSSYLAWYQQKPGQAPRLLIYGASSRATGIPDRFSGSGSGTDFTLTISRLESEDFAVYYCQHSRFTFGPGTRVDIK
B12: hr2.020 (antibody, V domains shown)
VH: EVQLVQSGAEVKKPGESLKISCKGSGYRFASHWIGWVRQMPGKGLQWMGIIYPGDSDTKYSPSFQGQVTISADKSINTVYLHWTSLKASDTAVYYCARRPPHLDGGDSPIRFDHWGQGTLVTVSS
VL: QSVLTQPPSASGTPGQRVTISCSGSRSNIGSNDVYWYQQFPGTAPKLLIYRNNQRPSGVPDRFSGSKSGTSASLAISGLRSEDEADYYCATWDDRLTGVFGGGTKLTVV
B13: hr2.086 (antibody, V domains shown)
VH: EVQLLESGGGLVQPGGYLRLSCAASGFTFSSYAMSWVRQAPGKGLEWVSVISGGGGSAYYADSVKGRFTISRDNSKNTLYLQMNSLRAEDTAVYYCAKIGMILVFDYWGQGTLVTVSS
VL: EIVLTQSPGTLSLSPGERATLSCRASQSVSNNYLAWYQQKPGQAPRLLISGASSRATGIPDRFSGSGSGTDFTLTISRLEPEDFAVYYCQQYGSSPPTFGQGTKVEIK
B14: hr2.018 (antibody, V domains shown)
VH: EVQLVESGGGLVKPGGSLRLSCVASGSSVIDAWMNWVRQAPGKGLEWVGRIKSKTNGATTDYAAPVKGRFTISRDDSKNLSYLQMNSLKTEDTGIYYCTTSPLPNFDYWGRGTLVTVSS
VL: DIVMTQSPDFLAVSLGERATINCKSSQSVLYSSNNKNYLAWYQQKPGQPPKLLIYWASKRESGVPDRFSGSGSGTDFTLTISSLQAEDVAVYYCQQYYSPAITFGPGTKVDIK
B15: hr2.019 (antibody, V domains shown)
VH: B14 VH with V23A, A32V, S53T, T55A, N56S, T59A, A63G, K89R, T90A
VL: DIVMTQSPDFLAVSLGETATINCRSSQSVFYFANNKNYLAWYQQKPGQPPKLLIYWASKRESGVPDRFSGSGSGTDFTLTISSLQAEDVATYYCQQYSSPAITFGPGTKVDIK
B16: hr2.012 (antibody, V domains shown)
VH: QVQLVQSGAEVKKPGASVKVSCKASGYTFTSHYIHWVRQAPGQGLEWMGIIKPSGGNTIYAQTFQGRVTMTRDTSTSTVYMELRSLTSDDTAVYYCARDQDHGLQRWGQGTLVTVSS
VL: QSVLTQPPSVSAPPGQKVTISCSGSSSNIGNNFVSWYQQLPGTAPKLLIYDNIERPSGIPDRFSGSRSGTSATLGITGLQTGDEADYYCGTWDTSLGAWVFGGGTKVTVL
B17: hr2.013 (antibody, V domains shown)
VH: QVQLVQSGAEVKKPGASVKISCKASGYTFTNNYMNWVRQAPGQGLEWMGIIKPSSGSTIYAHKFQGRVTMTRDTSTSTVYMEVRSLTSEDTAVYYCARDQDHGLQNWGQGTLVTVSS
VL: B16 VL with P13A, P14S, S21Y, G30A, N31S, L40F, I53N, E54Q, V107L
B18: hr2.015 (antibody, V domains shown)
VH: QVQLVQSGAEVKKPGASVKVSCKASGYTFSSYYVNWVRQAPGQGLEWLGIINRSGSSTIYAQKFQGRVTMTRDTSTSTVYLELSSLRSEDTAVYYCARDQDHALHWGQGTLVTVSS
VL: B16 VL with P13A, N31S, F33Y, I53S, G97S, V107L
B19: hr2.021 (antibody, V domains shown)
VH: QVQLVQSGAEVKKPGASVKVSCKASEAIFSGSYLHWVRQAPGQGLEWMGIITPSGDKTFYAQRFQGRLTMTRDTSTNTLHMHLSGLNSEDTAMYYCARQADKGGWDYWGQGTLVTVSS
VL: EIVLTQSPGTLSLSPGERATLSCRASQSVTSNYVAWYQQKPGQAPRLLIYGASTRATGIPDRFSGGGSGTDFTLTITRLEPEDFAVYYCQQYGSSPPTFTFGPGTKVDIK
B20: hr2.024 (antibody, V domains shown)
VH: QVQLVQSGAEVKKPGASVKVSCKASEDIFTDSYLHWVRQAPGQGLEWMGIITPSGDKTFYAQQFQGRLTMTRDPSTNTLYMFLSGLRSDDTAMYFCARQAEKGGWDYWGHGTLVTVSS
VL: B19 VL with E17Q, A25S, S28T, V29I, V34L, K40R, T54I, G66S, T77S, T100I
B21: hr2.025 (antibody, V domains shown)
VH: EVQLVQSGAEVKKPGESLKISCKGSGYSFTNYWIAWVRLMPGKGLEWMGFIFPGDSDTRYSPSFQGQVTISADKSISTAYLQWSSLKASDTAIYYCARRRGNSGNHDPYGMDVWGHGTTVTVSS
VL: not shown
B22: rbd.049 (antibody, V domains shown)
VH: QLQLQESGPGLVKPSETLSLSCTVSGGSISSKSDYWGWIRQSPGKGLEWIGSIYYTGTTYYNPSLKSRVSISLDKSKNQFSLKLNSLTAADTALYYCARDPSIAVATTVYFDAWGQGTLVTVSS
VL: EIVLTQSPGTLSLSPGERATLSCRASESVKSNYLAWYQQKLGQPPRLLIFGASTRATGIPDRFSGSGSGTDFTLTISRLEPEDFAVYYCQQYHTSPPRYTFGQGTKLEIK

One assay addresses SARS-CoV-2 fusion peptide (FP) coldspot peptide, 812-831 (SARS-CoV-2 (ancestral), biotin-Ahx at the N-terminus; C-terminal amidation).
In the case of B1, the binding result is reported as “binds”. Consider B2, for which the binding result was “binds”. As for B3, the binding result is “binds”. The same measure, in the same setting: for B4 the value was “binds”; for B5, “binds”; for B6, “binds”.

B7: the binding result was “binds”.

The next assay concerns the target SARS-CoV-2 S-2P ectodomain trimer (ancestral) (SARS-CoV-2 (ancestral, MN908947), stabilised).
On to B8, for which the binding result is listed as “binds”. Regarding B1, the binding result was “binds”. The same measure, in the same setting: for B2 the value was “binds”. Same read-out and setting: for B9 the value was “binds”; for B10, “binds”. The same measure, in the same setting: for B11 the value was “binds”. As to B12, the binding result is “binds”. The same measure, in the same setting: under B13 stands “binds”; under B4, “binds”.

For the molecule B14, the binding result is given as “binds”. Still for that read-out and setting: under B15 stands “binds”; under B16, “binds”. The same measure, in the same setting: under B17 stands “binds”; under B18, “binds”.

As to B19, the binding result is on record as “binds”. As to B20, the binding result was “binds”.

As to B5, the binding result is listed as “binds”.

Regarding B6, the binding result is “binds”. Still for that read-out and setting: under B21 stands “binds”.

The next assay concerns the target SD1-RBD of SARS-CoV-2 S (ancestral), aa 319-591 (SARS-CoV-2, ancestral (Wuhan-Hu-1; …, UniProt P0DTC2).
In the case of B22, the binding result is listed as “binds”.

(Values after PMC9972897 (Science immunology, 2023).)
